Several values for one entry are separate records, joined by “and”; a condition that tells them apart may be missing. Identical values can stand only once.
Experiments:
[1] = Sialyltransferase activity of crude enzyme solution (14C CMP-NeuAc transfer to lactose); assay type: biochemical; details: crude enzyme extraction solution from transformed E. coli; with acceptor (120 mM lactose); 30° C. for 30 minutes; duplicate
[2] = Confirmation of β-galactoside-α2,6-sialyltransferase activity with pyridylaminated lactose, HPLC; assay type: biochemical; details: enzyme expressed by E. coli transformed with SHIZ119-N1C0/pTrc99A
Description: The linkage mode of sialic acid transferred to the sugar acceptor substrate can be determined by, but is not limited to, any procedure known to those skilled in the art, for example, a method using a pyridylaminated sugar chain or nuclear magnetic resonance spectroscopy (NMR) of the reaction product. The method using a pyridylaminated sugar chain involves an enzyme reaction using the pyridylaminated sugar chain as the sugar acceptor substrate. More specifically, an enzyme reaction is performed using pyridylaminated lactose (Galβ1-4Glc-PA, manufactured by Takara Bio Inc.) as a sugar acceptor substrate and CMP-NeuAc as a sugar donor substrate, and the reaction product is analyzed by high performance liquid chromatography (HPLC). From the retention time of the reaction product, the position at which sialic acid was transferred is determined.
Then, to determine the linkage mode of sialic acid, a reaction using PA-lactose as a substrate was performed. The enzyme reaction was performed using the resulting crude enzyme solution and a pyridylaminated sugar chain as the sugar acceptor substrate. As the pyridylaminated sugar chain, pyridylaminated lactose (Galβ1-4Glc-PA, manufactured by Takara Bio Inc.) was used. […] The analysis was performed under the following conditions: flow rate: 1 mL/min, column temperature: 40° C., detection: fluorescence (Ex: 320 nm, Em: 400 nm). […]

B1: SHIZ119-N1C0 (protein)
chain: MCNDNQNTVDVVVSTVNDNVIENNTYQVKPIDTPTTFDSYSWIQTCGTPILKDDEKYSLSFDFVAPELDQDEKFCFEFTGDVDGKRYVTQTNLTVVAPTLEVYVDHASLPSLQQLMKIIQQKNEYSQNERFISWGRIGLTEDNAEKLNAHIYPLAGNNTSQELVDAVIDYADSKNRLNLELNTNTAHSFPNLAPILRIISSKSNILISNINLYDDGSAEYVNLYNWKDTEDKSVKLSDSFLVLKDYFNGISSEKPSGIYGRYNWHQLYNTSYYFLRKDYLTVEPQLHDLREYLGGSLKQMSWDGFSQLSKGDKELFLNIVGFDQEKLQQEYQQSELPNFVFTGTTTWAGGETKEYYAQQQVNVVNNAINETSPYYLGREHDLFFKGHPRGGIINDIILGSFNNMIDIPAKVSFEVLMMTGMLPDTVGGIASSLYFSIPAEKVSFIVFTSSDTITDREDALKSPLVQVMMTLGIVKEKDVLFWSDLPDCSSGVCIAQY
modifications: beta-galacoside-alpha-2,6-sialyltransferase from phorobacterium leiognathi (without signal peptide)
Transferred NeuAc [1]: 7786 cpm and 8446 cpm | reaction product with PA-lactose and CMP-NeuAc (linkage mode of transferred sialic acid) [2]: PA-6′-sialyllactose (Neu5Acα2-6Galβ1-4Glc-PA) was detected
